Laboratory results taken from patent US6355790, “Inhibition of HIV replication using a mutated transfer RNA primer” (University of Rochester).

B1: tRNAtarD (ssRNA)
RNA: UAGACCAUAGCUCAGUCGGUAGAGCAUCAGACUUUUAAUCUGAGGGUCCAGGGUUCAAGUCCCUGUGGUCUAACCA
B2: tRNALys3 (ssRNA)
RNA: GCCCGGAUAGCUCAGUCGGUAGAGCAUCAGACUUUUAAUCUGAGGGUCCAGGGUUCAAGUCCCUGUUCGGGCGCCA

Assays:
[1] = target: MoMuLV reverse transcriptase (Moloney murine leukemia virus, UniProt P03355 P03355:660-1330); assay: EMSA; did not bind MoMuLV RT
[2] = target: T1, HIV-1 reverse transcriptase (p66/p51) (Human immunodeficiency virus 1, UniProt P04585;P04585 P04585:588-1147,P04585:588-1027); assay: EMSA; affinity similar to tRNALys3; 100-fold excess competes effectively; 6 mM MgCl2, 60 mM NaCl, pH 8.3, 37 C; settings: Genetics Institute (Cambridge, MA) for polymerase assays; tRNA cloverleaf, acceptor stem restored
[3] = target: T1, HIV-1 reverse transcriptase (p66/p51); assay: EMSA; complex formed; competed by 100-fold excess of itself; 6 mM MgCl2, 60 mM NaCl, 40 mM Tris-HCl pH 8.3, 10 mM DTT, 37 C; settings: Genetics Institute (Cambridge, MA) for polymerase assays; label: 32P (CTP, internal); tRNA cloverleaf

Binder	binding result [1]	binding result [2]	binding result [3]
B1	no binding	binds	
B2			binds
